The target of this test is human TNF (hTNF) (human) (UniProt P01375). Briefly: method not stated (free scFv protein; titration curves in FIG. 11).

Kd data for one substance are collected here from patent US20100099103A1.

UniProt P01375, sequence (P01375 77-233 limits assumed): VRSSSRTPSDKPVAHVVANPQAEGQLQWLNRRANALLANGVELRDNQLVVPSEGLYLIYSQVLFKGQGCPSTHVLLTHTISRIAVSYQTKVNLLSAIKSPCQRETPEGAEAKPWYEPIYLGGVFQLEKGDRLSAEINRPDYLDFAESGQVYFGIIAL

As usually defined, the Kd is the free concentration of one partner at which half of the binding sites on the other are occupied at equilibrium, for simple one-to-one binding. A high value points to a looser complex. Take “2SD4 scFv (D2E7 scFv precursor), free protein”: the Kd was found to be 200 nM.
